T1: SLFN11 (Homo sapiens, UniProt Q7Z7L1, S753D)
T1 construct: S753D monomer, 104 kDa, model residues 7-897
T1 sequence (Q7Z7L1 1-901 S753D): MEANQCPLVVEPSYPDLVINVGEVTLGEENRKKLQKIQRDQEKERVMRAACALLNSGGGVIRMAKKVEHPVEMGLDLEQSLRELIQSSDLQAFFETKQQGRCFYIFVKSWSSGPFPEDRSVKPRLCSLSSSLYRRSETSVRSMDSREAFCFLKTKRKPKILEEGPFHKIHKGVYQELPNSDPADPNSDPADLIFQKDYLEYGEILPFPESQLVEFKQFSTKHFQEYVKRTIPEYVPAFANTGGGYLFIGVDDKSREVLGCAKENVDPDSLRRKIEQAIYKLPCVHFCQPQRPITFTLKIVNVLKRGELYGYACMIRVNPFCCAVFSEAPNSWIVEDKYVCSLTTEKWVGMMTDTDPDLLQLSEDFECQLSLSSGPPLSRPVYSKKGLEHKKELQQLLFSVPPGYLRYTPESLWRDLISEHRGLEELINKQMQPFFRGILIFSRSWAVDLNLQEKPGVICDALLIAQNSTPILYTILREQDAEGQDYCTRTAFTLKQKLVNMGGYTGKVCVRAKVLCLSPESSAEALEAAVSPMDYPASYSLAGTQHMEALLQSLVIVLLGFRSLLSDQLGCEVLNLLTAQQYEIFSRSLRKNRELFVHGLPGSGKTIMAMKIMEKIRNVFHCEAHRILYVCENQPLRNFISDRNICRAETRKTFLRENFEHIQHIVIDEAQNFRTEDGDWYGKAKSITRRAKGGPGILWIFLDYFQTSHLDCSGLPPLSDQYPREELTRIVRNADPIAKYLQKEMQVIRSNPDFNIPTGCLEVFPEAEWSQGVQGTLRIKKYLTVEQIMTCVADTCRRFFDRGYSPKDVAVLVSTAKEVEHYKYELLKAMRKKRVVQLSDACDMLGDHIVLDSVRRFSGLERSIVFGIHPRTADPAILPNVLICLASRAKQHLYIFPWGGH


What was measured:
SLFN11 = target: T1, SLFN11; test: nanoDSF thermal shift (Tycho NT.[…]); format: binding; details: 1 mM nucleotide, 300 nM protein, 25 mM Tris pH 7.5, 60 mM NaCl, 2 mM MgCl2
[1] = target: the molecule itself; test: mass photometry; 50 nM SLFN11 in 25 mM Tris pH 7.5, 2 mM MgCl2, 1 mM DTT with variable concentrations of NaCl (80 mM NaCl in Fig. 4d, e); dimer to monomers

Row | Molecule | inflection temperature shift (SLFN11) | stoichiometry N [1]
1 | Nc1ncnc2c1ncn2[C@@H]1O[C@H](COP(=O)(O)OP(=O)(O)OP(=O)(O)O)[C@@H](O)[C@H]1O [ATP] | ATP and ATPγS caused a large increase in the inflection temperatures of SLFN11^S753D | 
2 | Human Schlafen 11 (SLFN11), wild type (enzyme, Schlafen 11 (SLFN11), human; N-terminal nuclease domain, linker domain and C-terminal helicase domain; also called SLFN11^wt) MEANQCPLVVEPSYPDLVINVGEVTLGEENRKKLQKIQRDQEKERVMRAACALLNSGGGVIRMAKKVEHPVEMGLDLEQSLRELIQSSDLQAFFETKQQGRCFYIFVKSWSSGPFPEDRSVKPRLCSLSSSLYRRSETSVRSMDSREAFCFLKTKRKPKILEEGPFHKIHKGVYQELPNSDPADPNSDPADLIFQKDYLEYGEILPFPESQLVEFKQFSTKHFQEYVKRTIPEYVPAFANTGGGYLFIGVDDKSREVLGCAKENVDPDSLRRKIEQAIYKLPCVHFCQPQRPITFTLKIVNVLKRGELYGYACMIRVNPFCCAVFSEAPNSWIVEDKYVCSLTTEKWVGMMTDTDPDLLQLSEDFECQLSLSSGPPLSRPVYSKKGLEHKKELQQLLFSVPPGYLRYTPESLWRDLISEHRGLEELINKQMQPFFRGILIFSRSWAVDLNLQEKPGVICDALLIAQNSTPILYTILREQDAEGQDYCTRTAFTLKQKLVNMGGYTGKVCVRAKVLCLSPESSAEALEAAVSPMDYPASYSLAGTQHMEALLQSLVIVLLGFRSLLSDQLGCEVLNLLTAQQYEIFSRSLRKNRELFVHGLPGSGKTIMAMKIMEKIRNVFHCEAHRILYVCENQPLRNFISDRNICRAETRKTFLRENFEHIQHIVIDEAQNFRTEDGDWYGKAKSITRRAKGGPGILWIFLDYFQTSHLDCSGLPPLSDQYPREELTRIVRNADPIAKYLQKEMQVIRSNPSFNIPTGCLEVFPEAEWSQGVQGTLRIKKYLTVEQIMTCVADTCRRFFDRGYSPKDVAVLVSTAKEVEHYKYELLKAMRKKRVVQLSDACDMLGDHIVLDSVRRFSGLERSIVFGIHPRTADPAILPNVLICLASRAKQHLYIFPWGGH |  | 2
3 | SLFN11 phosphomimetic mutant T230D (enzyme, human, Schlafen 11 (SLFN11), human, with the phosphomimetic mutation T230D in the nuclease domain; Made by quick change PCR from the wild-type construct; also called SLFN11^T230D) MEANQCPLVVEPSYPDLVINVGEVTLGEENRKKLQKIQRDQEKERVMRAACALLNSGGGVIRMAKKVEHPVEMGLDLEQSLRELIQSSDLQAFFETKQQGRCFYIFVKSWSSGPFPEDRSVKPRLCSLSSSLYRRSETSVRSMDSREAFCFLKTKRKPKILEEGPFHKIHKGVYQELPNSDPADPNSDPADLIFQKDYLEYGEILPFPESQLVEFKQFSTKHFQEYVKRDIPEYVPAFANTGGGYLFIGVDDKSREVLGCAKENVDPDSLRRKIEQAIYKLPCVHFCQPQRPITFTLKIVNVLKRGELYGYACMIRVNPFCCAVFSEAPNSWIVEDKYVCSLTTEKWVGMMTDTDPDLLQLSEDFECQLSLSSGPPLSRPVYSKKGLEHKKELQQLLFSVPPGYLRYTPESLWRDLISEHRGLEELINKQMQPFFRGILIFSRSWAVDLNLQEKPGVICDALLIAQNSTPILYTILREQDAEGQDYCTRTAFTLKQKLVNMGGYTGKVCVRAKVLCLSPESSAEALEAAVSPMDYPASYSLAGTQHMEALLQSLVIVLLGFRSLLSDQLGCEVLNLLTAQQYEIFSRSLRKNRELFVHGLPGSGKTIMAMKIMEKIRNVFHCEAHRILYVCENQPLRNFISDRNICRAETRKTFLRENFEHIQHIVIDEAQNFRTEDGDWYGKAKSITRRAKGGPGILWIFLDYFQTSHLDCSGLPPLSDQYPREELTRIVRNADPIAKYLQKEMQVIRSNPSFNIPTGCLEVFPEAEWSQGVQGTLRIKKYLTVEQIMTCVADTCRRFFDRGYSPKDVAVLVSTAKEVEHYKYELLKAMRKKRVVQLSDACDMLGDHIVLDSVRRFSGLERSIVFGIHPRTADPAILPNVLICLASRAKQHLYIFPWGGH |  | 2
4 | SLFN11 phosphomimetic mutant S219D (enzyme, human, Schlafen 11 (SLFN11), human, with the phosphomimetic mutation S219D in the nuclease domain; Made by quick change PCR from the wild-type construct; also called SLFN11^S219D) MEANQCPLVVEPSYPDLVINVGEVTLGEENRKKLQKIQRDQEKERVMRAACALLNSGGGVIRMAKKVEHPVEMGLDLEQSLRELIQSSDLQAFFETKQQGRCFYIFVKSWSSGPFPEDRSVKPRLCSLSSSLYRRSETSVRSMDSREAFCFLKTKRKPKILEEGPFHKIHKGVYQELPNSDPADPNSDPADLIFQKDYLEYGEILPFPESQLVEFKQFDTKHFQEYVKRTIPEYVPAFANTGGGYLFIGVDDKSREVLGCAKENVDPDSLRRKIEQAIYKLPCVHFCQPQRPITFTLKIVNVLKRGELYGYACMIRVNPFCCAVFSEAPNSWIVEDKYVCSLTTEKWVGMMTDTDPDLLQLSEDFECQLSLSSGPPLSRPVYSKKGLEHKKELQQLLFSVPPGYLRYTPESLWRDLISEHRGLEELINKQMQPFFRGILIFSRSWAVDLNLQEKPGVICDALLIAQNSTPILYTILREQDAEGQDYCTRTAFTLKQKLVNMGGYTGKVCVRAKVLCLSPESSAEALEAAVSPMDYPASYSLAGTQHMEALLQSLVIVLLGFRSLLSDQLGCEVLNLLTAQQYEIFSRSLRKNRELFVHGLPGSGKTIMAMKIMEKIRNVFHCEAHRILYVCENQPLRNFISDRNICRAETRKTFLRENFEHIQHIVIDEAQNFRTEDGDWYGKAKSITRRAKGGPGILWIFLDYFQTSHLDCSGLPPLSDQYPREELTRIVRNADPIAKYLQKEMQVIRSNPSFNIPTGCLEVFPEAEWSQGVQGTLRIKKYLTVEQIMTCVADTCRRFFDRGYSPKDVAVLVSTAKEVEHYKYELLKAMRKKRVVQLSDACDMLGDHIVLDSVRRFSGLERSIVFGIHPRTADPAILPNVLICLASRAKQHLYIFPWGGH |  | 2

Source: paper PMC11615386, “Phosphorylation-mediated conformational change regulates human SLFN11” (Nature Communications, 2024)
